The values that follow come from article PMC9108607, “The intrinsically disordered CARDs‐Helicase linker in RIG‐I is a molecular gate for RNA proofreading”.

In data set [1] the target is T1, WT RIG-I (human, UniProt O95786 1-925).
T1 sequence: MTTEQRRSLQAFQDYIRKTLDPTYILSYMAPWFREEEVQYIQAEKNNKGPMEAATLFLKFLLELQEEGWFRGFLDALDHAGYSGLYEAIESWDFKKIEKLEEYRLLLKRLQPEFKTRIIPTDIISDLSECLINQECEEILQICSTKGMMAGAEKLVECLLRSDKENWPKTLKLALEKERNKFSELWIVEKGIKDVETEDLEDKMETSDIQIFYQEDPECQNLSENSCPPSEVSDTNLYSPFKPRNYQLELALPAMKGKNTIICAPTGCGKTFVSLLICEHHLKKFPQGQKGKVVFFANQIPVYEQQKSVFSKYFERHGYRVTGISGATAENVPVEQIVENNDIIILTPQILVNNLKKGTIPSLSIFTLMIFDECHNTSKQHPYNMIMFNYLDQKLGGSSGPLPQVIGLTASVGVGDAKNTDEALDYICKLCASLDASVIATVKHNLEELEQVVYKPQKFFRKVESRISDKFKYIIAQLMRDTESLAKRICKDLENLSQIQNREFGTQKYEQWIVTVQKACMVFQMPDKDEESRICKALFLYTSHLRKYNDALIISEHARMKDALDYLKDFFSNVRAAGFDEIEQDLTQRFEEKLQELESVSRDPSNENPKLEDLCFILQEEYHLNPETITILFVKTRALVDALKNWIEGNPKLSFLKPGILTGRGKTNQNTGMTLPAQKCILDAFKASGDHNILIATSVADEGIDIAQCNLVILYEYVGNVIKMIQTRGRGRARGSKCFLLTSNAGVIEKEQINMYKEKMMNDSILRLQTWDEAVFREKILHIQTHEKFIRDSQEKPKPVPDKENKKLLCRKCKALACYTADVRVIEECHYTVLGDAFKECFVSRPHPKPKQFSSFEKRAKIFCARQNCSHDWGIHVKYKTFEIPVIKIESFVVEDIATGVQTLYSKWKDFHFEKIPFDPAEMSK
As to the kind of experiment: RNA-dependent ATPase titration (KD,app); 1 mM ATP; Buffer A: 50 mM MOPS pH 7.4, 5 mM DTT, 5 mM MgCl2, 0.01% Tween20, 25°C (fluorimetry: 15 nM RNA; ATPase: 15 nM protein, 1 mM ATP); EMSA in Buffer A at 4°C. The conditions noted are these: protein: recombinant; tags: 6xHis-SUMO removed by Ulp1; label: 3' DY547 and 5' biotin on strand 2; blunt.

Data set [2] has as its target T2, Δ190-200 RIG-I (human, UniProt O95786 1-925, del190-200).
T2 sequence: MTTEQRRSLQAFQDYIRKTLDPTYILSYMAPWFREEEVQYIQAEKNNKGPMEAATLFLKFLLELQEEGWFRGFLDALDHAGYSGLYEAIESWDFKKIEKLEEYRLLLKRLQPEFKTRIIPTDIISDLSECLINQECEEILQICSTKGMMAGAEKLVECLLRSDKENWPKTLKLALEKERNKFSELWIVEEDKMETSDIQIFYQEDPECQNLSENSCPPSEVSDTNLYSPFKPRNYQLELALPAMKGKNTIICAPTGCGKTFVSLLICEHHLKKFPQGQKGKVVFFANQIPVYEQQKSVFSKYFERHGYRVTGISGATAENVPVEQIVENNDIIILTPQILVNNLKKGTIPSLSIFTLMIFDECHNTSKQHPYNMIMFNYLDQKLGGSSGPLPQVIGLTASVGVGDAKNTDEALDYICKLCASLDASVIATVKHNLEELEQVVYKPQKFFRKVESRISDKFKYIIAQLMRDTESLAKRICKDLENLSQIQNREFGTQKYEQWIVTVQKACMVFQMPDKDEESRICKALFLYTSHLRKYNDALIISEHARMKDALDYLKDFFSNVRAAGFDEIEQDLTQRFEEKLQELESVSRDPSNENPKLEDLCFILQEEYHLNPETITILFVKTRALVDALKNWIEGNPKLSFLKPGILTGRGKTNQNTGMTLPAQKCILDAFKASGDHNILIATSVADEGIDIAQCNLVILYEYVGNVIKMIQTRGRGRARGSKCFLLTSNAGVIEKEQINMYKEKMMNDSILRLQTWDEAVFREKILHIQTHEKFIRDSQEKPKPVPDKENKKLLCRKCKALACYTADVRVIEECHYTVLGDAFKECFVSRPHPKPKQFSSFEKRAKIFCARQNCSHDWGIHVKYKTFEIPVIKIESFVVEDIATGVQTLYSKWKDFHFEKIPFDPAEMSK
As to the kind of experiment: EMSA; streptavidin, ±2 mM ATP; oligomerizes with ATP; Buffer A: 50 mM MOPS pH 7.4, 5 mM DTT, 5 mM MgCl2, 0.01% Tween20, 25°C (fluorimetry: 15 nM RNA; ATPase: 15 nM protein, 1 mM ATP); EMSA in Buffer A at 4°C. The note with it: protein: recombinant; tags: 6xHis-SUMO removed by Ulp1; label: 3' DY547 and 5' biotin on strand 2; blunt. For orientation: In EMSA bound probe runs differently from free probe, usually more slowly.

B1: 5'ppp ds27 (dsRNA)
RNA 1: AUACGUCCUGAUAGUUAGUAUCCAUCG
RNA 2: CGAUGGAUACUAACUAUCAGGACGUAU
modifications: 5'ppp on strand 1
For the molecule B1, the “apparent KD relative to Hel-CTD” value in data set [1] is roughly 5 fold weaker than Hel-CTD. Moreover, the binding result in data set [2] is listed as “binds”.
